Measured values reported in PMC11642994, “AGC family kinase of Entamoeba histolytica: Decoding the members biochemically” (PLOS Pathogens, 2024).
Changes are numbered by the printed parent chain. In names and notes the source's numbering stands. Entries after “also recorded” stand apart in the source; their conditions may differ. No end group written: not given here.

Assays:
EhAGCK1 WT = EhAGCK1 WT (Entamoeba histolytica, UniProt C4M2W0); test: Microscale Thermophoresis (MST), EhAGCK1 WT; assay type: binding
Experimental: Microscale Thermophoresis (MST) was performed in the presence of full-length and kinase-dead EhAGCK1 and EhAGCK2 proteins, along with HsGSK3, EhRhoGEF, and EhCoactosin peptide substrates. Proteins were labelled using a His-tag labelling kit, RED-tris-NTA 2nd Generation (Nano Temper Technologies, San Francisco, CA, USA). A brief labelling reaction was performed in a buffer containing (50 mM Tris-Cl pH 8, 150 mM NaCl, 1 mM β-ME and 5% glycerol) with a protein concentration of 20 nM and a molar dye: protein ratio of approximately 3:1. The mixture was kept at room temperature for 30 min, followed by centrifugation at 15000 g for 10 min at 4°C. A series of 16 1:1 dilutions were prepared using the same buffer, resulting in peptide concentrations ranging from 500 μM to […]. Following a 10 min incubation, the samples were loaded into standard monolith NT.115 capillaries from Nano Temper Technologies. […] Data from three independently pipetted measurements were analysed using MO. […]
The kinase assay data presented here are the mean ± standard error (SE) of n≥3 of three independent experiments. The Km and Vmax were determined from a direct, nonlinear fit of [V] versus [S] plots using the Michaelis-Menten equation: V=Vmax[S]/Km+[S] using the GraphPad Prism 9.0 software package (GraphPad Software Inc., CA, USA). […]

[1] = target: T1, EhAGCK2 WT (Entamoeba histolytica AGC family kinase 2, EHI_053040), full-length recombinant His-tagged protein (Entamoeba histolytica, UniProt C4M3C2 1-434); test: MST; His-tagged kinase labelled with RED-tris-NTA 2nd Generation dye, kept constant (50 nM by the legend); unlabelled peptide in 16 1:1 dilutions, 500 uM to 153 nM as printed; 50 mM Tris-Cl pH 8, 150 mM NaCl, 1 mM beta-ME, 5% glycerol; 25 C; Monolith NT.115, 50% LED, medium MST power; details: both partners purified
T1 construct: source: E. coli C41(DE3), purified (Ni2+-NTA)
T1 sequence: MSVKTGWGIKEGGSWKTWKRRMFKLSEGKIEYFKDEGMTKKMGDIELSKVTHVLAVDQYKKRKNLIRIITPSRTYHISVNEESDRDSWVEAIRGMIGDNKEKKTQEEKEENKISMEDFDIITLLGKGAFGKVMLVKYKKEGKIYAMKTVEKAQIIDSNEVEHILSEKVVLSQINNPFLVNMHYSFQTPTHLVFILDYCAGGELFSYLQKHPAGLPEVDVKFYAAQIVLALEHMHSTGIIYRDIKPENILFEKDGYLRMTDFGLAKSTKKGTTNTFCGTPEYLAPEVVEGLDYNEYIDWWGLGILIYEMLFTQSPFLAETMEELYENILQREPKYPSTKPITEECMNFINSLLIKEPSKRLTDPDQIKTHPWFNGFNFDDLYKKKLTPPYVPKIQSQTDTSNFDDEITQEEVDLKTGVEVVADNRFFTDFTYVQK

HsGSK3 peptide = test: ADP-Glo kinase activity of kinase variants with human GSK3 peptide in MgCl2 and MnCl2 buffers; assay type: biochemical; details: for kinase activity with HsGSK3 peptide in presence of Mn2+: Mn2+ present
Experimental: The phosphorylation activity of kinases was measured using the ADP-Glo kinase assay kit according to the manufacturer’s protocol with few modifications (Promega, Madison, WI, Catalogue number V6930). Assays were performed in a Corning 384-well low-volume white round bottom polystyrene NBS microplate with a total volume of 32 μl in the ratio of 1:1:2, corresponding to the kinase reaction, ADP-Glo reagent, and detection reagent, respectively. The kinase reaction was performed in an 8 μl volume containing 4 μl of purified protein kinases, 2 μl of peptide substrate, and 2 μl of ATP (Promega, Madison, WI). The working concentration of all the kinase reaction components was prepared in the standard kinase assay buffer (40 mM Tris-Cl pH 7.5, 20 mM MgCl2, 2 mM DTT). Along with other controls, only buffer-negative controls without protein kinase, substrate, and ATP were included in the kinase assay. Kinase assay reactions in each well were started immediately by adding ATP. The reactions were allowed to continue for 1 h at 30°C in the incubator chamber without shaking. The kinase assay was quenched by adding 8 μl of ADP-Glo reagent in each well before adding ADP-Glo reagent. The reaction plate was incubated for 5 min at room temperature. Termination reactions were allowed to proceed for 40 min at room temperature. ADP-Glo reagent, in addition to quenching the reaction, scavenges the unconsumed ATP from the reaction. In the final step of the ADP-Glo kinase assay, 16 μl of kinase detection reagent was added to each well and incubated for 40 min to simultaneously convert ADP to ATP and allow the newly synthesised ATP to be measured using a luciferase/luciferin reaction. The luminescent signal generated was measured using a SpectraMax i3x Multi-Mode Microplate Reader (Molecular Devices), and it was proportional to the ADP concentration produced and correlated with the kinase activity.
The kinase assay data presented here are the mean ± standard error (SE) of n≥3 of three independent experiments. The Km and Vmax were determined from a direct, nonlinear fit of [V] versus [S] plots using the Michaelis-Menten equation: V=Vmax[S]/Km+[S] using the GraphPad Prism 9.0 software package (GraphPad Software Inc., CA, USA). Additionally, the Microscale Thermophoresis (MST) experiments were conducted using the Monolith NT.11.5 instrument, with triplicate runs. Statistical comparisons were made using Student’s t-test. Differences in mean values were considered significant at *p-value≤0.05, **p-value≤0.01, ***p-value≤0.001, ****p-value≤0.0001.

autophosphorylation = test: ATP biotinylation kinase assay (autophosphorylation, SA-HRPO western blot); assay type: biochemical, Entamoeba histolytica; details: 4 μM kinase (EhPDK1 2 μM), 20 μM biotin-labelled ATP, 40 mM Tris-Cl pH 7.8, 10 mM MgCl2, 2 mM DTT, 30°C, 1 h
Experimental: ATP biotinylation assays were performed in the presence of 4 μM of EhAGCK1 (WT, T275D, and KDD1) and EhAGCK2 (WT, T274D, and KDD2) along with 2 μM of wild-type EhPDK1 in the presence of activation buffer 40 mM Tris-Cl pH 7.8, 10 mM MgCl2, and 2 mM DTT and incubated at 30°C for 1 h. The reaction was triggered by adding 20 μM biotin-labelled ATP (Catalogue NU-970-BIO, Jena Bioscience). 20 μl of the reaction was collected at the indicated time point and quenched by the addition of 4x SDS-loading dye. After gel electrophoresis, phosphorylated proteins were visualized by immunoblotting using HRPO-conjugated streptavidin (Invitrogen).
ATP biotinylated protein samples were separated by SDS-PAGE and then electro-transferred to PVDF membrane (Pall life sciences). The membrane was blocked overnight by 5% BSA (G-Biosciences) in TBS-T (TBS with 0.1% Tween 20) and stained with Ponceau S. This blocking process was done overnight at 4°C. The membrane was then incubated with 1:1000 dilution of HRPO-conjugated streptavidin (Invitrogen) at room temperature. Following antibody incubation, the blots were carefully cleaned with TBS-T. Band detection was carried out with a Millipore ECL kit.

[2] = target: T2, EhAGCK1 WT (Entamoeba histolytica AGC family kinase 1, EHI_188930), full-length recombinant His-tagged protein (Entamoeba histolytica, UniProt C4M2W0 1-433); test: MST; His-tagged kinase labelled with RED-tris-NTA 2nd Generation dye, kept constant (50 nM by the legend); unlabelled peptide in 16 1:1 dilutions, 500 uM to 153 nM as printed; 50 mM Tris-Cl pH 8, 150 mM NaCl, 1 mM beta-ME, 5% glycerol; 25 C; Monolith NT.115, 50% LED, medium MST power; details: both partners purified
T2 construct: also called His-EhAGCK1; source: E. coli C41(DE3), purified (Ni2+-NTA)
T2 sequence: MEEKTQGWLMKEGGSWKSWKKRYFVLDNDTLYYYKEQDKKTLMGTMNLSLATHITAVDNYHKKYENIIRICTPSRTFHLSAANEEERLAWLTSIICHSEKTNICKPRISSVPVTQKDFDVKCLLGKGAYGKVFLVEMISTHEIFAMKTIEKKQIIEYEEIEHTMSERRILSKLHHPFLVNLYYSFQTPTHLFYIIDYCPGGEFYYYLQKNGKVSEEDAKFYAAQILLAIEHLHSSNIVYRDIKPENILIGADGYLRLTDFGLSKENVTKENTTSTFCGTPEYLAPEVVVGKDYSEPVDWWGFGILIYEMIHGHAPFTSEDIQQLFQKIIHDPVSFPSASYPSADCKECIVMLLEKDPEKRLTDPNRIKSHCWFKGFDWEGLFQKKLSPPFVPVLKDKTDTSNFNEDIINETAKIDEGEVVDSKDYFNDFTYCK

[3] = 50 μM HsGSK3 peptide, 250 μM ATP, 60 min, 30°C

GRPRTTSFAESCK [HsGSK3, reference compound]
Kd (EhAGCK1 WT): 2610 nM

KAGGADYSFNTTSN [EhCoactosin peptide (from Coactosin, EHI_168340)]
Kd [1]: 413 nM

B1: EhAGCK2 WT: recombinant full-length wild-type His-tagged AGC family kinase 2 of E. histolytica (protein)
chain: T1 sequence
modifications: left off: His tag, end not stated, kept
notes: recombinant full-length wild-type His-tagged AGC family kinase 2 of E. histolytica
kinase activity with HsGSK3 peptide in Mg2+ / without Mn2+ (words) (HsGSK3 peptide; Mg2+, 50 μM HsGSK3 peptide, kinase 0-80 μM, 250 μM ATP): phosphorylates HsGSK3 peptide | ion preference for kinase activity (HsGSK3 peptide; MgCl2 versus MnCl2 buffer, HsGSK3 peptide): phosphorylates the peptide substrates in both MgCl2 and MnCl2 buffers; also recorded: optimal activity with Mg^2+ | kinase activity with HsGSK3 peptide in presence of Mn2+ (HsGSK3 peptide; [3]): showed no increment, in fact, a small decrease in the average kinase activity | Fold change (MgCl2: MnCl2) (HsGSK3 peptide; S1 Table, kinase activity in MgCl2 and MnCl2 buffers, 50 μM HsGSK3 peptide, 250 μM ATP, 60 min, 30°C): 0.63 | autophosphorylation activity (words) (autophosphorylation): exhibited autophosphorylation activity | autophosphorylation activity (words) (autophosphorylation; listed as EhAGCK2): able to accept biotin-ATP as substrate and underwent autophosphorylation

SSPSSVPAAQSTTPVNVPK [EhRhoGEF peptide (from RhoGEF, EHI_008090)]
Kd [2]: 307 nM

B2: KDD1: kinase-dead domain EhAGCK1 (K147A and D241A) (protein)
chain: T2 sequence with K147A, D241A
modifications: left off: His tag, end not stated, kept
kinase activity with HsGSK3 peptide in presence of Mn2+ (HsGSK3 peptide; [3]): remained inactive | autophosphorylation activity (words) (autophosphorylation): remain inactive
